The target of test [1] is T1, human Tissue Factor on human TF-positive cells (human, UniProt P13726 33-295).
T1 construct: also called hTF; CD142
The test is described as follows: flow cytometry, antibody titration on MDA-MB-231 cells (human TF), 4-parameter fit of MFI. In general terms: In flow cytometry, cells or beads pass a laser one at a time.
Description: (§1) After 2 washes, dead cells were labeled with TO-PRO-3 Iodide (ThermoFisher Scientific) and samples were analyzed on a CytoFLEX flow cytometer (Beckman Coulter, Brea, CA, USA) or Novocyte flow cytometer (ACEA Biosciences, San Diego, CA, USA). The median fluorescence intensities (MFIs) at each dilution were plotted and cell EC₅₀'s were derived using a 4-parameter binding model in Prism (GraphPad, La Jolla, CA, USA).

For test [2], the target named is T1, human Tissue Factor on human …. The test is described as follows: competition flow cytometry on MDA-MB-231 cells: unlabeled antibody titration first, then 20 nM 25A3-Alexa488 as the competitor.
Test [3] has the same target. Nature of the test: competition flow cytometry on MDA-MB-231 cells: unlabeled antibody titration first, then 20 nM 43D7-Alexa488 as the competitor.
Description: (§2) After another 1 hr incubation on ice, cells were washed, stained with a viability dye, and analyzed by flow cytometry. The Alexa488 fluorescence data from viable cells was summarized using median fluorescence intensity.
Test [4] addresses T2, human TF ECD-His6 (human, UniProt P13726 33-251).
T2 construct: Expi293-derived; Biacore used TF-His; also called TF-His; hTF
The test is described as follows: SPR (Biacore), TF-His over coupled antibody. A general note: SPR reads the build-up and loss of mass on a sensor chip optically.
Description: (§3) Kinetic measurements for the anti-TF antibodies were conducted on an Octet QK384 (Pall ForteBio, Fremont, CA, USA) or a Biacore (GE Healthcare Bio-Sciences).
(§4) For the Biacore-based measurements, the antibody was covalently coupled to a CM5 or C1 chip using an amine-coupling kit (GE Healthcare Bio-Sciences). Association between the anti-TF antibodies and a five-point three-fold titration of TF-His starting at 25 to 500 nM was measured for 300 sec. Subsequently, dissociation between the anti-TF antibody and TF-His was measured for up to 1800 sec. Kinetic data was analyzed and fitted globally using a 1:1 binding model.

Test [5] addresses T3, cynomolgus monkey TF ECD-His6 (cynomolgus monkey (Macaca fascicularis)).
T3 construct: Expi293-derived; also called TF-His; cTF
T3 chain: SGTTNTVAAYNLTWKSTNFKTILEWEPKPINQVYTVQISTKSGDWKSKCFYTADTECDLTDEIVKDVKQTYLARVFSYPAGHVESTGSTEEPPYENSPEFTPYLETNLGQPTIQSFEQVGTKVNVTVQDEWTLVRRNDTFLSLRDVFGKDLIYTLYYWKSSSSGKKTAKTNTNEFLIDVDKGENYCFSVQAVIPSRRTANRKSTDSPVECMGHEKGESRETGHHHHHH
Nature of the test: SPR (Biacore), TF-His over coupled antibody.
Description: as §3, §4

The target in test [6] is T4, hTF_N171H_T197K construct on HEK293 cells (human, UniProt P13726 33-251).
T4 construct: The entry already carries N171H and T197K; not shown: transmembrane/cytoplasmic anchor of the cell-surface construct
T4 chain: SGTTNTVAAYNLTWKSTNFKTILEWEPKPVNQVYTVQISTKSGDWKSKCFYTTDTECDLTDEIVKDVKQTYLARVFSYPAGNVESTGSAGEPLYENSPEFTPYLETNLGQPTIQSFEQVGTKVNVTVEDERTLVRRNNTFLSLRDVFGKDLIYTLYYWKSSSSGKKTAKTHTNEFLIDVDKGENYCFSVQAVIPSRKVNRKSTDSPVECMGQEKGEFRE
Nature of the test: live cell staining, HEK293 cells.

Test [7] has as its target T1, human Tissue Factor on human …. The test is described as follows: flow cytometry, titration of unconjugated antibody on HCT-116 cells (human TF), 4-parameter fit of MFI.
For test [8] the target is unchanged. Nature of the test: flow cytometry, antibody titration on HCT-116 cells (endogenous human TF), 4-parameter fit of MFI.
Description: as §1
In test [9] the target is T5, rTF (rat TF) construct on HEK293 cells (rat, UniProt P42533 29-252).
T5 construct: not shown: transmembrane/cytoplasmic anchor of the cell-surface construct
The test is described as follows: flow cytometry (live cell staining), antibody titration 1:3 from 250 nM on HEK293 cells transfected with rTF.

In test [10] the target is T1, human Tissue Factor on human …. Nature of the test: flow cytometry, antibody titration on A431 cells (human TF), 4-parameter fit of MFI.
Description: as §1
The target in test [11] is T6, full-length mouse TF with a C-terminal FLAG tag on Flp-In-CHO cells (mouse, UniProt P20352 29-294).
T6 construct: also called CHO-mTF; mouse TF-positive CHO cells
Nature of the test: flow cytometry on CHO cells expressing mouse TF, MFI at 250 nM antibody.
Description: as §1

Test [12] has as its target T1, human Tissue Factor on human …. The test is described as follows: competition flow cytometry on MDA-MB-231 cells: unlabeled antibody titration first, then 20 nM 25A3-Alexa488 as the competitor. The source holds these as a separate data set.
The target in test [13] is T2, human TF ECD-His6. The test is described as follows: BLI (ForteBio Octet).
Description: as §3
(§5) Briefly, ForteBio affinity measurements were performed by loading IgGs on-line onto AHC sensors. Sensors were equilibrated off-line in assay buffer for 30 min and then monitored on-line for 60 seconds for baseline establishment. Sensors with loaded IgGs were exposed to 100 nM antigen (human, cynomolgus, or mouse TF) for 3 min, afterwards they were transferred to assay buffer for 3 min for off-rate measurement. Alternatively, binding measurements were obtained by loading biotinylated TF monomer on SA sensors followed by exposure to 100 nM antibody Fab in solution. Kinetic data was analyzed and fitted using a 1:1 Langmuir binding model and the KD was calculated by dividing the koff by the kₒₙ.
Test [14] concerns the target T3, cynomolgus monkey TF ECD-His6. The test is described as follows: BLI (ForteBio Octet). In general terms: Biolayer interferometry detects binding as a change in optical thickness at a sensor tip.
Description: as §3, §5
The target in a further test is T7, mouse TF ECD-His6 (mouse, UniProt P20352 29-251).
T7 construct: Expi293-derived; also called TF-His; mTF
The test is described as follows: BLI (ForteBio Octet).

Test [15] has as its target T5, rTF (rat TF) construct on HEK293 cells. Nature of the test: live cell staining, HEK293 cells.
Target sequence in this assay (P42533 29-252 limits assumed): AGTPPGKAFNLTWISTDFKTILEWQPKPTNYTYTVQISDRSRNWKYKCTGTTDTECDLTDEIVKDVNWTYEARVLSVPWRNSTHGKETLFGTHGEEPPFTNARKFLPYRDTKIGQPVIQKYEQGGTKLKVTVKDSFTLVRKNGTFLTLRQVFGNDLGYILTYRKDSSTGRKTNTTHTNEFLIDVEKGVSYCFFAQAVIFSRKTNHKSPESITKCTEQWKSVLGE
Description: (§6) To establish binding of the anti-human TF antibodies to the various TF constructs, HEK293 cells were transfected with a DNA plasmid that co-expresses the TF construct and a green fluorescent protein marker. […] Upon acquisition of 80,000 live events on a flow cytometer, live cells marked with the fluorescent marker were analyzed for the degree of staining by the anti-TF antibody.
Test [16] has as its target T1, human Tissue Factor on human …. Nature of the test: competition flow cytometry on MDA-MB-231 cells: unlabeled antibody titration first, then 20 nM 39A-Alexa488 as the competitor.
Description: as §2
Test [17] shares this target. The test is described as follows: competition flow cytometry on MDA-MB-231 cells: antibody titration first, then 20 nM FVII-Fc-Alexa488 as the blocked ligand.
The target of test [18] is T8, r141-194_h chimeric rat-human TF construct on HEK293 cells (rat with human segment, UniProt P42533 29-252).
T8 construct: not shown: transmembrane/cytoplasmic anchor of the cell-surface construct
The test is described as follows: flow cytometry (live cell staining), antibody titration 1:3 from 250 nM on HEK293 cells transfected with r141-194_h.

The target in another test is T9, h108-219_r (human/rat chimera).
T9 chain: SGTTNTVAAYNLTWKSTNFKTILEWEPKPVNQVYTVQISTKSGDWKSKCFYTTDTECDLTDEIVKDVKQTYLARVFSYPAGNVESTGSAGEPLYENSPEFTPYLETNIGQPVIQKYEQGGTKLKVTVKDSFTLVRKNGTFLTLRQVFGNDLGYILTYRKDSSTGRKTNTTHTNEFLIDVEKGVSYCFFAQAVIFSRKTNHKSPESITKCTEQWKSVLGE
Nature of the test: live cell staining, flow cytometry, transfected HEK293.

The target of test [19] is T10, Macaca mulatta TF on RF/6A cells (Macaca mulatta (protein sequence stated …, UniProt P13726 33-294 (human entry))).
T10 construct: Endogenous TF of the RF/6A cell line; also called TF-positive Macaca mulatta RF/6A cells; cynomolgus TF
T10 chain: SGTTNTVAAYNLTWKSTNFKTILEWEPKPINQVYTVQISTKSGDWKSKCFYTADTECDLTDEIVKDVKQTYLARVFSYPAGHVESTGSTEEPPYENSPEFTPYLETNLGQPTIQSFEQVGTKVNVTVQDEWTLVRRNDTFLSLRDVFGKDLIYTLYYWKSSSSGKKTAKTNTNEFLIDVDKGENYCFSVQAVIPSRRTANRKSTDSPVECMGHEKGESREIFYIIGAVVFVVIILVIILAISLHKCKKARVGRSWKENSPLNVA
The test is described as follows: flow cytometry, IgG1 titrated on TF-positive Macaca mulatta RF/6A cells, 4-parameter fit.
Description: as §1

Another test deals with T11, Expi293-derived TF-His (human (Example 17 does not restate the …, UniProt P13726 33-251)).
T11 construct: Glycosylated TF ECD-His6 from Expi293 cells; also called Expi293-derived TF protein; TF ECD-His6
Nature of the test: protein ELISA, plate coated with Expi293-derived TF-His, antibody titrated, HRP secondary, luminescence; Expi293-derived TF, not E. coli-derived.

The next test has as its target T12, E. coli-derived TF (human (Example 17 does not restate the …, UniProt P13726 33-251)).
T12 construct: also called E. coli-derived TF-His; E. coli-derived TF protein
The test is described as follows: protein ELISA, plate coated with E. coli-derived TF-His, antibody titrated, HRP secondary, luminescence.

Description for E. coli-derived TF: (§7) Plates coated with Expi293- or E. coli-derived TF-His were incubated with increasing concentrations of antibodies.
Description for Expi293-derived TF-His: as §7
Description for h108-219_r: as §6
Description for mouse TF ECD-His6: as §3, §5

B1: 25A3 (antibody, human IgG1, V domains shown)
VH: QVQLVQSGAEVKKPGASVKVSCKASGYTFDVYGISWVRQAPGQGLEWMGWIAPYSGNTNYAQKLQGRVTMTTDTSTSTAYMELRSLRSDDTAVYYCARDAGTYSPFGYGMDVWGQGTTVTVSS
VL: DIQMTQSPSTLSASVGDRVTITCQASQSINNWLAWYQQKPGKAPKLLIYKAYNLESGVPSRFSGSGSGTEFTLTISSLQPDDFATYYCQLFQSLPPFTFGGGTKVEIK
notes: Human IgG1; also called antibody designated 25A3
The term EC50 denotes the concentration that produces a half-maximal response. The IC50 is the concentration at which inhibition is half-maximal. Broadly, the Kd is a measure of binding affinity in units of concentration. As for B1, the EC50 in test [1] was 170 pM; in test [7], 160 pM; in [8], 77 pM; in [10], 500 pM. The IC50 in [2] was 1030 pM; in [3], 840 pM; in test [12], 1130 pM. Moreover, the Kd with human TF ECD-His6 [4] worked out at 360 pM; in [5], 210 pM; with human TF ECD-His6 [13], 1670 pM; in test [14], 1360 pM; in the test with mouse TF ECD-His6 it was 131000 pM. Also, the binding result in [6] is on record as “no binding (tested: 15 ug/ml (100 nM); below 50% of hTF)”; in test [9], “no binding (tested: 250 nM)”. For the same molecule, the “MFI at 250 nM” value in [11] was determined as 5.8e+06.

B2: TF-011 (antibody, V domains shown)
VH: EVQLLESGGGLVQPGGSLRLSCAASGFTFSNYAMSWVRQAPGKGLEWVSSISGSGDYTYYTDSVKGRFTISRDNSKNTLYLQMNSLRAEDTAVYYCARSPWGYYLDSWGQGTLVTVSS
VL: DIQMTQSPPSLSASAGDRVTITCRASQGISSRLAWYQQKPEKAPKSLIYAASSLQSGVPSRFSGSGSGTDFTLTISSLQPEDFATYYCQQYNSYPYTFGQGTKLEIK
notes: Previously described anti-TF antibody; also called tisotumab
In the case of B2, in test [15], the binding result is “no binding”. Also, the IC50 in test [16] is 610 pM; in [17], 1010 pM.

B3: 10H10 (M1593) (antibody, V domains shown)
VH: EVQLVQSGAEVKKPGESLRISCKGSGYTFAPYWIEWVRQMPGKGLEWMGDILPGTGFTTYSPSFQGHVTISADKSISTAYLQWSSLKASDTAMYYCARSGYYGNSGFAYWGQGTLVTVSS
VL: DIVMTQTPLSLPVTPGEPASISCKSSQSLLSSGNQKNYLTWYLQKPGQSPQLLIYWASTRESGVPDRFSGSGSGTDFTLKISRVEAEDVGVYYCQNDYTYPLTFGQGTKLEIK
notes: also called anti-TF M1593
Regarding B3, the binding result in test [9] and in test [18] was “no binding (tested: 250 nM)” in each case.

B4: 5G9 (humanized TF8-5G9, CNTO 860) (antibody, V domains shown)
VH: QVQLVESGGGVVQPGRSLRLSCKASGFNIKDYYMHWVRQAPGKGLEWIGLIDPENGNTIYDPKFQGRFTISADNSKNTLFLQMDSLRPEDTAVYYCARDNSYYFDYWGQGTPVTVSS
VL: DIQMTQSPSSLSASVGDRVTITCKASQDIRKYLNWYQQKPGKAPKLLIYYATSLADGVPSRFSGSGSGTDYTFTISSLQPEDIATYYCLQHGESPYTFGQGTKLEIT
notes: Previously described anti-TF antibody; detected with anti-human IgG-Fc; also called h5G9
As to B4, in the test with h108-219_r, the “percent antibody binding to TF construct relative to hTF” value came to 0%.

B5: 1F (antibody, human IgG1, V domains shown)
VH: EVQLLESGGGLVQPGGSLRLSCAASGFTFSDYAMGWVRQAPGKGLEWVSTISGSGGLTYYADSVKGRFTISRDNSKNTLYLQMNSLRAEDTAVYYCAKAPYGYYMDVWGKGTTVTVSS
VL: not shown
notes: Human IgG1; also called antibody designated 1F
Regarding B5, the EC50 was 170 pM in test [19], 410 pM with Expi293-derived TF-His and 320 pM in the test with E. coli-derived TF.
